Laboratory results: FireProtDB (doi:10.1002/pro.370)
Several values for one entry are separate records, joined by “and”; a condition that tells them apart may be missing. Identical values can stand only once.

B1: Variable large protein wild type, O06878 (protein)
chain: MKKISSAILLTTFFVFINCKSQVADKDDPTNKFYQSVIQLGNGFLDVFTSFGGLVAEAFGFKSDPKKSDVKTYFTTVAAKLEKTKTDLNSLPKEKSDISSTTGKPDSTGSVGTAVEGAIKEVSELLDKLVKAVKTAEGASSGTAAIGEVVADADAAKVADKASVKGIAKGIKEIVEAAGGSEKLKAVAAAKGENNKGAGKLFGKAGAAAHGDSEAASKAAGAVSAVSGEQILSAIVTAADAAEQDGKKPEEAKNPIAAAIGDKDGGAEFGQDEMKKDDQIAAAIALRGMAKDGKFAVKDGEKEKAEGAIKGAAESAVRKVLGAITGLIGDAVSSGLRKVGDSVKAASKETPPALNK
B2: Guanyl-specific ribonuclease Sa wild type, P05798 (protein)
chain: DVSGTVCLSALPPEATDTLNLIASDGPFPYSQDGVVFQNRESVLPTQSYGYYHEYTVITPGARTRGTRRIITGEATQEDYYTGDHYATFSLIDQTC

Conditions: 25 °C, Urea, CD, whole UniProt chain shown
[1] = Borreliella burgdorferi, pH 7, MOPS 30 mM
[2] = Kitasatospora aureofaciens, pH 3, Glycine 30 mM
[3] = Kitasatospora aureofaciens, pH 7, MOPS 30 mM

| Protein | denaturant m value [1] [kcal/mol/M] | denaturant midpoint (higher = more stable) [1] [M] | unfolding free energy [1] [kcal/mol] | denaturant m value [2] [kcal/mol/M] | denaturant midpoint (higher = more stable) [2] [M] | unfolding free energy [2] [kcal/mol] | denaturant m value [3] | denaturant midpoint (higher = more stable) [3] | unfolding free energy [3] |
| --- | --- | --- | --- | --- | --- | --- | --- | --- | --- |
| B1 | 3.86 | 1.19 | 4.6 | – | – | – | – | – | – |
| B2 | – | – | – | 1.63 | 1.6 | 2.6 | 1 kcal/mol/M and 0.94 kcal/mol/M | 6.4 M and 6.45 M | 6.4 kcal/mol and 6.1 kcal/mol |
